Measured values from patent US10322164B2, “Modulation of cellular localization of cyclin C” (Rowan University, priority 2014, dated 2019).

Experiments:
[1] = tested on: MCF-7 breast cancer cell line; test: Cyclin C localization in stressed MCF-7 cells; format: cell-based, human; details: H2O2 0.4 mM for 4 h
Protocol: (§1) (FIG. 15A) cyclin C localization was followed in MCF-7 or MCF-10A cells exposed to H2O2 (0.4 mM) for 4 h. (FIG. 15B) cyclin C levels were monitored by Western blot in MCF-7 cells treated with (+) or without (−) CCNC specific siRNAs. β-tubulin levels were followed as a loading control. (FIG. 15C) Viability was measured (viable stain assays) in the cell lines described in (FIG. 15B) following 4 h H2O2 exposure as indicated.
(§2) Cells were cultured on coverslips then fixed with 4% paraformaldehyde for 20 min, permeabilized with 0.2% Triton X-100 for 15 min, blocked with 2% BSA, and incubated with antibodies as indicated. The cells were mounted with DAPI-containing medium (Vector Labs) and the images were acquired with Nikon Eclipse 90i microscope equipped with a Retiga Exi CCD camera and NIS software for data analysis. DAPI (5 μg/ml) and Mitotracker Red (5 μg/ml) staining was used to identify nuclear and mitochondrial subcellular localization.
(§3) To evaluate the role of cyclin C in PCD execution, CCNC specific siRNAs were used to knockdown cyclin C. The knockdown efficiency was about 70% compared to control (FIG. 14C).

[2] = tested on: Drp1 phosphorylation at the activating serine (Ser616); test: Drp1 Ser616 phosphorylation in Hela cells subjected to H2O2; format: cell-based, human
Description: (§4) For phosphorylation, both inhibitory and stimulatory modifications have been identified. For example, cyclin B-Cdk1 phosphorylation at the G2/M boundary stimulates Drp1 activity to induce fission to promote mitochondrial partitioning during mitosis. This modification is clearly observed in cells arrested at the G2/M boundary following addition of the microtubule destabilizing agent nocodazole. Therefore, one possibility is that cytoplasmic cyclin C is now free to interact with another Cdk to modify Drp1 and induce fission. However, no increase was found in Drp1 phosphorylation at the activating serine (Ser616) in Hela cells subjected to H2O2 or in permeabilized CCNC^−/−MEF cells treated with GST-cyclin C. […] It is possible that the accelerated fission in these experiments results in de-phosphorylation of Ser616 helping attenuate mitochondrial fragmentation.

HeLa cells = test: Cyclin C localization in stressed HeLa cells; format: cell-based, human
Protocol: (FIG. 14A) cyclin C localization in H2O2 stressed cultures as indicated. See (FIG. 14B) for enlarged images for 6 hr+H2O2 cells. (FIG. 14C) Knockdown efficiency of cyclin C by siRNA. con=scrambled siRNA control. Annexin V studies in the cultures described in (FIG. 14D). Graph illustrates % annexin V positive cells for cells with and without Cyclin C siRNA knockdown in the presence or absence of H2O2. Error bars=s.e.m. Three independent cultures were assayed for each sample.
as §2, §3

MCF-10A cells = test: Cyclin C localization and mitochondrial fission in stressed MCF-10A cells; format: cell-based, human; details: H2O2 0.4 mM for 4 h
Protocol: as §1, §2, §3

[3] = target: T1, cyclin C-Med13 interaction (Mus musculus, UniProt Q5SWW4); test: Cyclin C localization and mitochondrial morphology in MEF cells incubated with TAT-HAD or control peptide (indirect immunofluorescence); format: cell-based
T1 construct: endogenous in cells; host or cells: wild type (CCNC+/+) mouse embryonic fibroblasts, SV40 T antigen immortalized
Protocol: The amino terminal sequences of cyclin C from the indicated organisms. Homologies are shaded. Boxed region is targeted using the HIV TAT basic domain fused to the 19 amino acid (aa) peptide indicated by the line above the sequence. (FIG. 11B) Representative images of MEF cells incubated with TAT-HAD peptide or control (25 μM) for three hours then fixed and stained for the nucleus (DAPI), mitochondria (MitoTracker Red) and cyclin C (α-cyclin C). Arrows indicate regions of interaction between cyclin C and mitochondria.
as §2
CCNC^+/+ and CCNC^−/− MEF cells were treated with 0.4 mM H2O2 for 4 hrs. Mitochondrial morphology was monitored by MitoTracker Red staining. The cells were imaged with the 60× objective on the Nikon Eclipse C1Ti confocal microscope equipped with a Ds-Qi1MC CCD camera. The TAT-HAD peptide was added to log phase unstressed wild type MEF cultures for 3 h prior to image acquisition.
A highly conserved region of cyclin C has been identified [Cooper, K. F. and R. Strich, Functional analysis of the Ume3p/Srb11p-RNA polymerase II holoenzyme interaction. Gene Expr, 1999. 8(1): p. 43-57; Cooper, K. F., S. Khakhina, S. K. Kim, and R. Strich, Stress-Induced Nuclear-to-Cytoplasmic Translocation of Cyclin C Promotes Mitochondrial Fission in Yeast, Dev Cell, 2014. 28: p. 161-173.], boxed, FIG. 11A) that is responsible for Med13 binding in yeast. […]

[4] = tested on: Drp1 phosphorylation at the activating serine (Ser616); test: Drp1 Ser616 phosphorylation in permeabilized CCNC-/- MEF cells treated with GST-cyclin C; format: cell-based, mouse
Description: as §4

[5] = tested on: permeabilized CCNC^−/−MEF cells; test: Mitochondrial fragmentation in digitonin-permeabilized CCNC-/- MEF cells after adding GST fusion proteins (live confocal microscopy); format: cell-based, mouse
Protocol: To examine whether cyclin C was sufficient to induce fission or if additional stress-specific signals were required, permeabilized CCNC^−/−MEF cells were used and E. coli purified human GST-cyclin C (Hs GST-cyclin C). The CCNC^−/−null cell line was employed to avoid any contribution from endogenous cyclin C. GST-cyclin C or GST (˜4 nM) was added to digitonin treated cells and mitochondrial morphology was monitored in living cells by confocal microscopy. Images were collected for 18 min at 2 min increments. […] Deconvolved images reveled little detectable changes in mitochondrial morphology in the GST treated cultures up to 18 min (9.3%). […] To determine if this function is conserved, the activity of the yeast cyclin C fused to GST (GST-cyclin C Sc) was also examined. […] To determine if the quantity of GST-cyclin C added was rate limiting, this experiment was repeated with twice the GST-cyclin C Hs concentration as before.

[6] = permeabilized CCNC-/- MEF cells

T1 sequence (Q5SWW4 whole entry): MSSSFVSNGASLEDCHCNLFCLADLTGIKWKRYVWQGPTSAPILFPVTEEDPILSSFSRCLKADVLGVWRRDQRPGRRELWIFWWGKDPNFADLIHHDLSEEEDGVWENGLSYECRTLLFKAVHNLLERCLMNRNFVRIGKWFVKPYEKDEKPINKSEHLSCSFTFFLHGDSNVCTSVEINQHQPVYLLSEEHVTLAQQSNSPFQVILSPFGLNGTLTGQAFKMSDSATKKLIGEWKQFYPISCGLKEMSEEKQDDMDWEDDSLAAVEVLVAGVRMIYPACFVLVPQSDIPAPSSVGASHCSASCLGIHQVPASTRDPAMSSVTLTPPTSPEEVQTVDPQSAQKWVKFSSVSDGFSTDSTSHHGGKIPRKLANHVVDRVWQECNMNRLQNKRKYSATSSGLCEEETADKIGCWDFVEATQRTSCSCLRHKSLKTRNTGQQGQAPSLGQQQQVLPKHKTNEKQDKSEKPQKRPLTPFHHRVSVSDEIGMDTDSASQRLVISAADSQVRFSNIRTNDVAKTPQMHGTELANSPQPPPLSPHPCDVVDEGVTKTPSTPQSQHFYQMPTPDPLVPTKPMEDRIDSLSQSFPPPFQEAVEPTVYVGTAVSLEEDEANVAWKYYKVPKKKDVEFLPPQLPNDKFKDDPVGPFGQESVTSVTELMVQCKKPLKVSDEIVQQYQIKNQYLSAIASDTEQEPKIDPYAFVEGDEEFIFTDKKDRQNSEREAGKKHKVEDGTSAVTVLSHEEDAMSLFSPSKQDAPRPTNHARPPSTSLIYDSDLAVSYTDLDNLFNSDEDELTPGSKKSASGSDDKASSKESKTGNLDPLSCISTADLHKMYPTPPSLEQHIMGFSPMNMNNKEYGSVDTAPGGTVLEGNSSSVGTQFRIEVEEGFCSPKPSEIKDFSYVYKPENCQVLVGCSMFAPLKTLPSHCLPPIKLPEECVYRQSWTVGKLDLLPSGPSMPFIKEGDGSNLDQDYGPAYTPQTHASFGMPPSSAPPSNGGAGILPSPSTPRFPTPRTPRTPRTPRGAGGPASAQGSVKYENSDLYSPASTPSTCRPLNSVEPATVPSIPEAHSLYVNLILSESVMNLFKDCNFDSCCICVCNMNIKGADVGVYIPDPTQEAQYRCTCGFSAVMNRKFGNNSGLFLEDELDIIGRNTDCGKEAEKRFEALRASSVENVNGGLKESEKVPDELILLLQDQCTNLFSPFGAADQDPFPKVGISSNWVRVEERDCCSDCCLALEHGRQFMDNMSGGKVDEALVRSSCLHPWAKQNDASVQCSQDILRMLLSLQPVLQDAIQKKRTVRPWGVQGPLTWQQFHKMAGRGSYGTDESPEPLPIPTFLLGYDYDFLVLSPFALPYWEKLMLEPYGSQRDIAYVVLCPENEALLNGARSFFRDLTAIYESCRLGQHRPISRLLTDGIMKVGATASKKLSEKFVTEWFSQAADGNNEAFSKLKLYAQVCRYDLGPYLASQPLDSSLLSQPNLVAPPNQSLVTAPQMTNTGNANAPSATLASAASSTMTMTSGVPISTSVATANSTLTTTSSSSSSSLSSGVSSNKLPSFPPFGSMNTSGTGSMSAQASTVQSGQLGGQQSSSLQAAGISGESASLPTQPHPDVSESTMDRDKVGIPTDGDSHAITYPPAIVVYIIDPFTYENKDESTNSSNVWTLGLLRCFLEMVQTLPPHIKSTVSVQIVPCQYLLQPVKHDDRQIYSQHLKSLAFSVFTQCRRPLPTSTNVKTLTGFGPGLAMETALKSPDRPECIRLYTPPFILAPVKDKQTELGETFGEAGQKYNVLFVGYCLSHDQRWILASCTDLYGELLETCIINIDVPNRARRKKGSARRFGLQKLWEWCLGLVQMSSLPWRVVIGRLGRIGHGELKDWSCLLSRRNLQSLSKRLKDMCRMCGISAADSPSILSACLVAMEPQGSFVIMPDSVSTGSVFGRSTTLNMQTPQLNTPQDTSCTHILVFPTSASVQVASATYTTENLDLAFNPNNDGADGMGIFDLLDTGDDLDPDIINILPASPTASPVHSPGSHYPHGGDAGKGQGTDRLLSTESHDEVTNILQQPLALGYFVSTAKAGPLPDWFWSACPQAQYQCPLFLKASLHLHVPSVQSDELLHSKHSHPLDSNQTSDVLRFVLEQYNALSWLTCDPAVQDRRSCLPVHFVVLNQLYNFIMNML

Molecule: OO [H2O2]
- cyclin C localization [1]: remained nuclear
- Drp1 phosphorylation at Ser616 [2]: no increase
- cyclin C localization (HeLa cells): translocated from the nucleus to the cytoplasm
- cyclin C relocalization and mitochondrial fission (MCF-10A cells): normal cyclin C relocalization and mitochondrial fission

Molecule: YGRKKRRQRRRWILDKQDLLKERQKDL (SEQ ID NO:6) (YGRKKRRQRRRWILDKQDLLKERQKDLKFL) [TAT-HAD peptide, HIV TAT basic domain fused to the cyclin C holoenzyme association domain (HAD) peptide]
- time within which the translocation/fragmentation phenotype was lost [3]: ≤ 24 h
- cyclin C localization ([3]; peptide 25 μM, three hours): nuclear to cytoplasmic cyclin C translocation
- mitochondrial morphology ([3]; peptide 25 μM, three hours, MitoTracker Red): abnormal fragmented morphology

Molecule: N.N.[Cl][Pt][Cl] [cisplatin]
- cyclin C localization [1]: remained nuclear

B1: GST-cyclin C: E. coli purified human GST-cyclin C (protein, UniProt P24863 1-283, looked up)
Cyclin-C: MAGNFWQSSHYLQWILDKQDLLKERQKDLKFLSEEEYWKLQIFFTNVIQALGEHLKLRQQVIATATVYFKRFYARYSLKSIDPVLMAPTCVFLASKVEEFGVVSNTRLIAAATSVLKTRFSYAFPKEFPYRMNHILECEFYLLELMDCCLIVYHPYRPLLQYVQDMGQEDMLLPLAWRIVNDTYRTDLCLLYPPFMIALACLHVACVVQQKDARQWFAELSVDMEKILEIIRVILKLYEQWKNFDERKEMATILSKMPKPKPPPNSEGEQGPNGSQNSSYSQS
modifications: GST tag
- Drp1 phosphorylation at Ser616 [4, 6]: no increase
- quantitation of the Ser616 phosphorylation signal ([4]; permeabilized cells): reduced
- time to total mitochondrial fragmentation ([5]; twice the GST-cyclin C Hs concentration): ≤ 8 min
- time at which significant mitochondrial fragmentation began ([5]; ~4 nM protein): ≤ 10 min
- percentage of culture exhibiting fragmented mitochondria by 18 min ([5]; ~4 nM protein, digitonin treated cells, 8-10% fragmented prior to treatment): 94%

B2: GST-cyclin C Sc: yeast cyclin C fused to GST (protein, UniProt P47821 1-323, looked up)
RNA polymerase II holoenzyme …: MSGSFWTSTQRHHWQYTKASLAKERQKLWLLECQLFPQGLNIVMDSKQNGIEQSITKNIPITHRDLHYDKDYNLRIYCYFLIMKLGRRLNIRQYALATAHIYLSRFLIKASVREINLYMLVTTCVYLACKVEECPQYIRTLVSEARTLWPEFIPPDPTKVTEFEFYLLEELESYLIVHHPYQSLKQIVQVLKQPPFQITLSSDDLQNCWSLINDSYINDVHLLYPPHIIAVACLFITISIHGKPTKGSSLASAASEAIRDPKNSSSPVQIAFNRFMAESLVDLEEVMDTIQEQITLYDHWDKYHEQWIKFLLHTLYLRPASAI
modifications: GST tag
- efficiency of inducing mitochondrial fission compared with human cyclin C [5, 6]: as efficient inducing mitochondrial fission as the human cyclin C
